Experimental data from US20250388666A1 (BRIGHAM AND WOMEN S HOSPITAL, published 2025).
Residue numbers refer to the chain shown, from its start. Names may count otherwise. Where two headings read alike, the source gives them in different places.

B1: Parent (scFv)
scFv: EVQLLESGGGLVQPGGSLRLSCAASGFSFSDYYLYWVRQAPGKGLEWVATISVGGGQTSYADSVKGRFTISRDNSKNTLYLQMNSLRAEDTAMYYCTRGLYYGPAWFAYWGQGTLVTVSSGGGGSGGGGSGGGGSDIVMTQSPDSLAVSLGERATINCKSSQSLLNSANQKNYLAWYQQKPGQPPKLLIYFASTRESGVPDRFSGSGSGTDFTLTISSLQAEDVAVYYCQQHYSTPWTFGGGTKVEIK
notes: also called parent humanized scFv; parental RSB02 scFv; not shown: C-terminal Flag tag from phagemid pANT65
B2: parent VH2 N56Q/Vκ4 S27(f)A scFv displayed on phage (scFv)
scFv: B1 scFv
notes: also called parent scFv hyper phage; parent M13 helper phage; not shown: C-terminal Flag tag and gene III fusion
B3: He3/L20 (antibody, IgG4, V domains shown)
VH: EVQLLESGGGLVQPGGSLRLSCAASGFSFSDYYLYWVRQAPGKGLEWVATISVGGGQTSYADSVKGRFTISRDNSKNTLYLQMNSLRAEDTAMYYCTRALTYGPAWLAYWGQGTLVTVSS
VL: DIVMTQSPDSLAVSLGERATINCKSSQSLLNSANQKNYLAWYQQKPGQPPKLLIYFASTRESGVPDRFSGSGSGTDFTLTISSLQAEDVAVYYCQSHFPYPLTFGGGTKVEIK
notes: IgG4 S241P, kappa; also called He3 / 20
B4: Parent VH/L1 (antibody, IgG4, V domains shown)
VH: B3 VH with A99G, T101Y, L107F
VL: B3 VL with F98Y, Y100F, P101Y, L102Y
notes: IgG4 S241P, kappa; also called VHp/L1; VH2 N56Q / 1
B5: He9/L6 (antibody, IgG4, V domains shown)
VH: B3 VH with T97A, L100M, T101Y, L107F
VL: B3 VL with F98Y, Y100F, P101S, L102F
notes: IgG4 S241P, kappa; also called He9 / 6

Experiments:
[1] = molecular target: T1, CEACAM1 (Sino Biological) (human, UniProt P13688 35-428, limits assumed); test: single-point competition ELISA: crude periplasmic scFv extract mixed 1:1 with VH2 N56Q/Vk4 S27(f)A IgG (0.246 µg/mL) on plate-coated CEACAM1 (0.0625 µg/mL); remaining IgG detected with anti-human-HRP, absorbance 450 nm
T1 construct: may be the same as CEACAM1-HIS; also called hCEACAM1; biotinylated soluble CEACAM1
T1 sequence: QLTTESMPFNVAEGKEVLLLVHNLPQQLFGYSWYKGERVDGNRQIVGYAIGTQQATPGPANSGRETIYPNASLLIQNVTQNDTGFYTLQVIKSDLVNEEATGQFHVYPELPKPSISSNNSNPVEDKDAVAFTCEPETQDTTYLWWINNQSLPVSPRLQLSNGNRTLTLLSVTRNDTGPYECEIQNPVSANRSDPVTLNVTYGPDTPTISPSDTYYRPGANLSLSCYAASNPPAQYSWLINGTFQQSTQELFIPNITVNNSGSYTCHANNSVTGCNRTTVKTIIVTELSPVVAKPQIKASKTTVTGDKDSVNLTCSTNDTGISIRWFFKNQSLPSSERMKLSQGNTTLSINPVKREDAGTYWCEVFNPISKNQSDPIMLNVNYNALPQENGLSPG
Description: Nunc Immuno MaxiSorp 96 well flat bottom microtitre plates were coated with CEACAM1 at 0.0625 μg/ml overnight. Plates were subsequently washed and blocked for 1 hour at room temperature with 3% BSA/PBS. Periplasmic extracts were diluted 1:1 with VH2 N56Q/Vk4 S27(f)A IgG (parental RSB02 IgG) at 0.246 μg/mL in 6% BSA/PBS. The diluted periplasmic extract was then added to the blocked plate (100 μL per well) and the samples incubated on the plate for 1 hour at room temperature. Plates were subsequently washed and the binding of VH2 N56Q/Vk4 S27(f)A IgG was detected with an anti-human-HRP antibody (Sigma, Gillingham, UK) and TMB substrate (Invitrogen). The reaction was stopped with 1 M HCl, absorbance read at 450 nm on a Dynex Technologies MRX TC II plate reader and the binding data plotted.
Improved clones were identified on the basis of activity in the competition ELISA relative to the parental RSB02 scFv assayed on the same plate. Greater than 7300 peripreps were analyzed in total from all three libraries. Positive hits were picked into ‘cherry’ plates, re-tested within the competition ELISA to confirm results and sequenced. Dominant single sequence clones were identified in both the VH B1 (˜41% of clones sequenced after round 3 were a single dominant clone) and VL libraries (˜20% of clones were single dominant clones from those sequenced from round 3 and 4).

[2] = molecular target: T1, CEACAM1 (Sino Biological); test: phage binding assay
[3] = molecular target: T2, CEACAM5 (Sino Biological) (human, UniProt P06731 35-685); test: binding ELISA on plate-coated CEACAM (0.5 µg/mL); antibody at 1.67, 0.062 and 0.0069 µg/mL; signal as % of parent IgG on CEACAM1 at 1.67 µg/mL on the same plate
T2 construct: also called hCEACAM5
T2 sequence (looked up): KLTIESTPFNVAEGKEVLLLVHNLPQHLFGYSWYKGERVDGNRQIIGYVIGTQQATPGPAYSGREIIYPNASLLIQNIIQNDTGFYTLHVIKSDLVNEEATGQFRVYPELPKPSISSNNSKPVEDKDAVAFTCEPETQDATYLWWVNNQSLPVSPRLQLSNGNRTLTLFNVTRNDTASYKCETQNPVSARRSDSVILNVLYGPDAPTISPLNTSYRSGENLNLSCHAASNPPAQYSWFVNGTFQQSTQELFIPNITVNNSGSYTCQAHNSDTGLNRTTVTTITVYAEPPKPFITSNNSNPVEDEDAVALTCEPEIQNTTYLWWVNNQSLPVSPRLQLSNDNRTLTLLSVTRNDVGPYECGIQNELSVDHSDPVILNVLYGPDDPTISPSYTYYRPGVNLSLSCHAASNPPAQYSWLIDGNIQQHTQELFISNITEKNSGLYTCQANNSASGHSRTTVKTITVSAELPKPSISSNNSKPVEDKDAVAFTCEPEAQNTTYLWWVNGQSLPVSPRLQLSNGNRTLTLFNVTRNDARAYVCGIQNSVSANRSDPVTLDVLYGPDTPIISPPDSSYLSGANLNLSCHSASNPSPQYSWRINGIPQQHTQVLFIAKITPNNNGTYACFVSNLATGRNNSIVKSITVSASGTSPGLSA

[4] = molecular target: T3, CEACAM3 (Sino Biological) (human, UniProt P40198 35-155, limits assumed); test: as above
T3 construct: also called hCEACAM3
T3 sequence (looked up): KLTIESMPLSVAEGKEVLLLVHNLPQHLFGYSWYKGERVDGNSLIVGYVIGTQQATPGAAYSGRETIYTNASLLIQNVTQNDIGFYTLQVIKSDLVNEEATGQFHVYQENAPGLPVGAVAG

[5] = molecular target: T4, CEACAM6 (Sino Biological) (human, UniProt P40199 35-320); test: as above
T4 construct: also called hCEACAM6
T4 sequence (looked up): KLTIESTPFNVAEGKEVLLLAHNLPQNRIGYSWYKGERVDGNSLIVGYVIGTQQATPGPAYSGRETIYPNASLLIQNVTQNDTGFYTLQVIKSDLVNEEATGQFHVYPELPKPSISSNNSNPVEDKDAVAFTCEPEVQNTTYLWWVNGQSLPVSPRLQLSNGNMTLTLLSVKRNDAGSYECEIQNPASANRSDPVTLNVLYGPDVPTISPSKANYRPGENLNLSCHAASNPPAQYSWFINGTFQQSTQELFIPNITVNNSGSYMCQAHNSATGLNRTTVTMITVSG

[6] = molecular target: T1, CEACAM1 (Sino Biological); test: SPR multi-cycle, IgG on Protein A
[7] = molecular target: T1, CEACAM1 (Sino Biological); test: SPR single-cycle
Summary of the method: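 Humanized affinity-matured IgGs from crude supernatants captured on Protein A to ~100 RU, with CEACAM1 analyte injected at 25–100 nM (three-point, two-fold) in HBS-P+ without regeneration. 200 s association per injection, 300 s single dissociation; reference-channel and blank subtracted.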

[8] = molecular target: T2, CEACAM5 (Sino Biological); test: binding ELISA on plate-coated CEACAM (0.5 µg/mL); antibody at 1.67, 0.062 and 0.0069 µg/mL; signal as % of parent IgG on CEACAM1 at 1.67 µg/mL on the same plate; remark: listed apart in the source
[9] = molecular target: T3, CEACAM3 (Sino Biological); test: as above; remark: listed apart in the source
[10] = molecular target: T4, CEACAM6 (Sino Biological); test: as above; remark: listed apart in the source
[11] = molecular target: T3, CEACAM3 (Sino Biological); test: as above; remark: listed apart in the source

Binder	binding result [1]	binding result [2]	binding result [3]	binding result [4]	binding result [5]	Kd [6]	koff [6]	kon [6]	relative KD to Parent [6]	Kd [7]	fold better than Parent (KD) [7]	binding result [8]	binding result [9]	binding result [10]	binding result [11]
B1	binds	–	–	–	–	–	–	–	–	–	–	–	–	–	–
B2	–	binds	–	–	–	–	–	–	–	–	–	–	–	–	–
B3	–	–	no binding (tested: 1.67 µg/mL)	no binding (tested: 1.67 µg/mL)	no binding (tested: 1.67 µg/mL)	25.5 nM	0.0078 s⁻¹	306000 M⁻¹ s⁻¹	3.34 ratio	74 nM	2.15 fold	–	–	–	–
B4	–	–	–	–	–	125 nM	0.00413 s⁻¹	33100 M⁻¹ s⁻¹	0.68 ratio	41 nM	3.87 fold	no binding (tested: 1.67 µg/mL)	no binding (tested: 1.67 µg/mL)	no binding (tested: 1.67 µg/mL)	–
B5	–	–	–	–	–	39.6 nM	0.00151 s⁻¹	38100 M⁻¹ s⁻¹	4.82 ratio	22 nM	7.1 fold	–	–	–	no binding (tested: 1.67 µg/mL)
